According to the supplement of paper PMC9233669:
Variants at the floor of the assay were thinned out.

What was measured:
[1] = tested on: biotinyl-Leu-oxazolone; experiment: self-aminoacylation, catalytic enhancement (BLO) (fold over background); higher = more active; k-Seq, kA / k0A0; sequences stand for … in GGGAAUGGAUCCACAUCUACGAAUUC…UUCACUGCAGACUUGACGAAGCUG
Procedure, shortened: (§1)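 Each biotinyl-aminoacyl-oxazolone, at 2–1250 μM, was incubated with mutagenized RNA pools (0.43 μM) carrying a 21-nt variable region. The 50 μL reactions contained HEPES/NaCl/KCl/MgCl2/CaCl2 buffer with 5% acetonitrile at pH 6.9–7.0 and ran for 90 minutes at room temperature. After streptavidin capture, RNA was measured by qPCR in triplicate and by Illumina sequencing, and catalytic enhancement was calculated as median kA over the uncatalyzed rate from a pseudo-first-order fit of per-sequence fraction reacted.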

[2] = tested on: biotinyl-Ile-oxazolone; experiment: self-aminoacylation, catalytic enhancement (BIO) (fold over background); higher = more active; k-Seq, kA / k0A0; sequences stand for … in GGGAAUGGAUCCACAUCUACGAAUUC…UUCACUGCAGACUUGACGAAGCUG
Procedure, shortened: as §1

[3] = tested on: biotinyl-Met-oxazolone; experiment: self-aminoacylation, catalytic enhancement (BMO) (fold over background); higher = more active; k-Seq, kA / k0A0; sequences stand for … in GGGAAUGGAUCCACAUCUACGAAUUC…UUCACUGCAGACUUGACGAAGCUG
Procedure, shortened: as §1

[4] = tested on: biotinyl-Phe-oxazolone; experiment: self-aminoacylation, catalytic enhancement (BFO) (fold over background); higher = more active; k-Seq, kA / k0A0; sequences stand for … in GGGAAUGGAUCCACAUCUACGAAUUC…UUCACUGCAGACUUGACGAAGCUG
Procedure, shortened: as §1

[5] = tested on: biotinyl-Val-oxazolone; experiment: self-aminoacylation, catalytic enhancement (BVO) (fold over background); higher = more active; k-Seq, kA / k0A0; sequences stand for … in GGGAAUGGAUCCACAUCUACGAAUUC…UUCACUGCAGACUUGACGAAGCUG
Procedure, shortened: as §1

[6] = tested on: biotinyl-Trp-oxazolone; experiment: self-aminoacylation, catalytic enhancement (BWO) (fold over background); higher = more active; k-Seq, kA / k0A0; sequences stand for … in GGGAAUGGAUCCACAUCUACGAAUUC…UUCACUGCAGACUUGACGAAGCUG
Procedure, shortened: as §1

Row | Sequence | self-aminoacylation [1] | self-aminoacylation [2] | self-aminoacylation [3] | self-aminoacylation [4] | self-aminoacylation [5] | self-aminoacylation [6]
1 | AUCCACCUAGGUCAUCGGGUC [Fam2.2 aminoacylation ribozyme variant] | 1.93 | 1.72 | 2.25 | 5.86 | 2.04 | 2.68
2 | CGACACUUCAAGCAAUCUGUC [Fam1B.1 aminoacylation ribozyme variant] | 0.411 | 0.554 | 0.52 | 0.656 | 0.51 | 0.416
3 | AAGUUUGCUAGUAGUCGCAUG [Fam3.1 aminoacylation ribozyme variant] | 0.808 | 0.903 | 0.737 | 0.822 | 0.873 | 1.4
4 | ACUCACCUAGUUCAUCGGGUG [Fam2.2 aminoacylation ribozyme variant] | 3.86 | 2.87 | 3.46 | 19.7 | 3.36 | 3.85
5 | CCACACUUCAAUCAAUCCGUC [Fam1B.1 aminoacylation ribozyme variant] | 0.61 | 0.655 | 0.641 | 0.663 | 0.823 | 0.611
6 | AUUCACCAAGGCCAUCGGGUG [Fam2.2 aminoacylation ribozyme variant] | 5.34 | 3.32 | 5.09 | 30.1 | 3.49 | 4.57
7 | ACGUUUGCUAAUAGUCGAAAG [Fam3.1 aminoacylation ribozyme variant] | 1.09 | 1.37 | 1.58 | 5.96 | 1.24 | 2.68
8 | CCACACUUCAGGUAAUCGGUC [Fam1B.1 aminoacylation ribozyme variant] | 0.824 | 0.805 | 0.887 | 1.07 | 1.07 | 0.712
9 | CUACUCCAAACAAUCGGCCUG [Fam1A.1 aminoacylation ribozyme variant] | 2.07 | 1.65 | 1.38 | 3.54 | 1.42 | 3.22
10 | AUUCACCUUGGUCAACGGGUG [Fam2.2 aminoacylation ribozyme variant] | 4.24 | 2.22 | 3.19 | 20.3 | 2.2 | 3.03
11 | CUACUCCAAACAAUCGGUCUC [Fam1A.1 aminoacylation ribozyme variant] | 0.513 | 0.71 | 0.753 | 2.41 | 0.723 | 1.34
12 | AAGUUUGCUAAUAGUCGCUAA [Fam3.1 aminoacylation ribozyme variant] | 1.2 | 1.33 | 1.13 | 1.96 | 1.21 | 1.53
13 | UUUGCCCUGGUCAUCGAGUGA [Fam2.1 aminoacylation ribozyme variant] | 41 | 16.5 | 45.5 | 294 | 18.1 | 46.1
14 | CCACACUAUAAGCAAUCGGUC [Fam1B.1 aminoacylation ribozyme variant] | 0.59 | 0.789 | 0.567 | 0.92 | 0.793 | 0.386
15 | CCACACUUCAUACAAUCGGUC [Fam1B.1 aminoacylation ribozyme variant] | 0.703 | 0.618 | 0.608 | 0.729 | 0.744 | 0.726
16 | AUUCCCCUCGGUCAUCGGGUG [Fam2.2 aminoacylation ribozyme variant] | 30.8 | 14.8 | 21.1 | 211 | 14 | 22.6
17 | AUUACUGUGGUCAUCGAGUGA [Fam2.1 aminoacylation ribozyme variant] | 4.25 | 2.65 | 4.65 | 14.1 | 2.56 | 5.16
18 | AUUACCGUGGUCAUCGAGUAA [Fam2.1 aminoacylation ribozyme variant] | 1.56 | 1.42 | 1.35 | 1.2 | 1.58 | 1.93
19 | AUUCACCUAGGUCAUCGAGGG [Fam2.2 aminoacylation ribozyme variant] | 2.89 | 1.58 | 2.19 | 3.09 | 1.43 | 1.1
20 | ACGUUUGCGAAUAGUCGCAAG [Fam3.1 aminoacylation ribozyme variant] | 1.85 | 1.97 | 1.58 | 3.56 | 1.45 | 2.17
21 | CUACUUCUAACAAUCGGUCCG [Fam1A.1 aminoacylation ribozyme variant] | 0.799 | 0.708 | 0.765 | 0.505 | 0.621 | 0.63
22 | AUCCACCUAGGUCAUCUGGUG [Fam2.2 aminoacylation ribozyme variant] | 3.74 | 2.26 | 2.77 | 26.4 | 2.28 | 2.77
23 | AUUCACCUAAGUCAUCGGCUG [Fam2.2 aminoacylation ribozyme variant] | 1.63 | 1.52 | 1.55 | 5.86 | 1.58 | 0.999
24 | CUACACUUUAAGCAAUCGGUC [Fam1B.1 aminoacylation ribozyme variant] | 0.585 | 0.768 | 0.63 | 0.979 | 0.74 | 0.565
25 | AAGUUUGAUACUAGUCGCAAG [Fam3.1 aminoacylation ribozyme variant] | 1.37 | 1.5 | 0.811 | 1.36 | 1.25 | 0.887
26 | CUUCACCUAGGUCAUCGGGUU [Fam2.2 aminoacylation ribozyme variant] | 7.09 | 4.09 | 5.02 | 18.1 | 3.77 | 5.02

Row | Sequence | self-aminoacylation [1] | self-aminoacylation [2] | self-aminoacylation [3] | self-aminoacylation [4] | self-aminoacylation [5] | self-aminoacylation [6]
27 | AUUACCCUGGUCAACGAGAGA [Fam2.1 aminoacylation ribozyme variant] | 0.664 | 0.807 | 0.82 | 0.544 | 0.904 | 0.896
28 | AUUACGCUGGCCAUCGAGUGA [Fam2.1 aminoacylation ribozyme variant] | 5.89 | 4.5 | 6.9 | 32.4 | 4.76 | 8.46
29 | AUUCACGUAGGCCAUCGGGUG [Fam2.2 aminoacylation ribozyme variant] | 4.12 | 3.71 | 4.29 | 48.1 | 5.3 | 5.37
30 | AUUACCCUGGUUAUAGAGUGA [Fam2.1 aminoacylation ribozyme variant] | 16 | 6.6 | 16.7 | 117 | 6.47 | 19.1
31 | AUUUCCCUGGUCAUCGAUUGA [Fam2.1 aminoacylation ribozyme variant] | 1.06 | 1.07 | 0.986 | 0.598 | 1 | 0.985
32 | AUUCACCUAGGUCAUCAGCUG [Fam2.2 aminoacylation ribozyme variant] | 0.804 | 0.757 | 0.806 | 0.631 | 0.757 | 0.477
33 | CCCCAGUUCAAGCAAUCGGUC [Fam1B.1 aminoacylation ribozyme variant] | 3.86 | 2.48 | 2.77 | 7.95 | 2.65 | 7.44
34 | AAUUCCCUGGUCAUCGAGUGA [Fam2.1 aminoacylation ribozyme variant] | 10.8 | 5.6 | 10.1 | 41.5 | 6.09 | 13
35 | CCAUACUUCCAGCAAUCGGUC [Fam1B.1 aminoacylation ribozyme variant] | 1.1 | 1.45 | 1.06 | 0.952 | 1.39 | 0.815
36 | ACUCACCUAGGUCAUCGCGUG [Fam2.2 aminoacylation ribozyme variant] | 10.6 | 5.51 | 7.39 | 70 | 6.93 | 9.66
37 | AUGCACCGAGGUCAUCGGGUG [Fam2.2 aminoacylation ribozyme variant] | 6.58 | 3.81 | 5.79 | 40.4 | 3.66 | 6.46
38 | AAUACCAUGGUCAUCGAGUGA [Fam2.1 aminoacylation ribozyme variant] | 6.22 | 3.19 | 6.12 | 16.2 | 2.89 | 7.7
39 | AUGACCAUGGUCAUCGAGUGA [Fam2.1 aminoacylation ribozyme variant] | 8.09 | 4.29 | 7.94 | 22.1 | 4.28 | 9.59
40 | CAACCUCAAACAAUCGGUCUG [Fam1A.1 aminoacylation ribozyme variant] | 1.61 | 1.21 | 1.37 | 11.5 | 1.31 | 4.78
41 | CUACUACAAACAAUCGGUCUG [Fam1A.1 aminoacylation ribozyme variant] | 0.608 | 0.694 | 0.634 | 1.24 | 0.743 | 0.73
42 | CCACACUUCAAGCAAACUGUC [Fam1B.1 aminoacylation ribozyme variant] | 0.44 | 0.424 | 0.371 | 0.713 | 0.504 | 0.5
43 | UUUACCCUGGUCAACGAGUGA [Fam2.1 aminoacylation ribozyme variant] | 5.66 | 3 | 5.61 | 26.1 | 3.5 | 8.31
44 | GCACACUUCGAGCAAUCGGUC [Fam1B.1 aminoacylation ribozyme variant] | 1.46 | 1.87 | 1.9 | 2.2 | 1.81 | 2.86
45 | ACUCACCUAGGACAUCGGGUG [Fam2.2 aminoacylation ribozyme variant] | 4.64 | 3.36 | 3.82 | 20.1 | 4.87 | 4.88
46 | AUUAACUUGGUCAUCGAGUGA [Fam2.1 aminoacylation ribozyme variant] | 4.16 | 2.9 | 3.67 | 3.99 | 2.48 | 4.83
47 | GUACUUCAAACAAUCGCUCUG [Fam1A.1 aminoacylation ribozyme variant] | 1.88 | 1.77 | 1.91 | 3.1 | 1.71 | 3.76
48 | AAUUCUGCUAAUAGUCGCAAG [Fam3.1 aminoacylation ribozyme variant] | 1.61 | 1.88 | 1.81 | 12.7 | 1.56 | 4.46
49 | AAGUUUGCUAAUAGUCCCAUG [Fam3.1 aminoacylation ribozyme variant] | 0.89 | 0.978 | 0.887 | 0.885 | 1.13 | 1.19
50 | CCACAAUUCAAACAAUCGGUC [Fam1B.1 aminoacylation ribozyme variant] | 1.19 | 1.26 | 1.08 | 18.1 | 1.04 | 8.88
51 | CUACUUCAAACAAUCCGUCUU [Fam1A.1 aminoacylation ribozyme variant] | 0.802 | 0.814 | 0.764 | 0.785 | 0.862 | 0.691
